Test results as given in PMC1764712, “Recruitment and Activation of RSK2 by HIV-1 Tat” (PLoS ONE, 2007).

B1: GST-Tat 1–86 (natural protein)
chain: MEPVDPRLEPWKHPGSQPKTACTNCYCKKCCFHCQVCFITKALGISYGRKKRRQRRRAHQNSQTHQASLSKQPTSQPRGDPTGPKE
notes: HIV-1 Tat amino acids 1-86; also called GST-Tat (amino acids 1–86); recombinant Tat (amino acids 1–86) fused to the C-terminus of GST; source: E. coli BL21, purified (glutathione-sepharose); not shown: GST, N-terminal, kept

Legend:
[1] = target: Endogenous RSK2 of Cos7 cells (African green monkey (endogenous in Cos7))
[2] = target: T1, Full-length human recombinant RSK2 isolated from insect cells (human, UniProt P51812 1-740); assay: pull-down; GST proteins immobilised on glutathione-sepharose, incubated with 200 ng human recombinant RSK2; binding buffer 20 mM Hepes pH 7.9, 1% Triton, 0.5% NP-40, 200 mM KCl; washes with 1 M KCl; western blot with α-RSK2; settings: both partners purified
T1 construct: Human ribosomal S6 protein kinase 2 (RSK2), full length; also called full-length recombinant RSK2; source: bought: Upstate Biotechnology (isolated from insect cells)
T1 sequence (P51812 whole entry): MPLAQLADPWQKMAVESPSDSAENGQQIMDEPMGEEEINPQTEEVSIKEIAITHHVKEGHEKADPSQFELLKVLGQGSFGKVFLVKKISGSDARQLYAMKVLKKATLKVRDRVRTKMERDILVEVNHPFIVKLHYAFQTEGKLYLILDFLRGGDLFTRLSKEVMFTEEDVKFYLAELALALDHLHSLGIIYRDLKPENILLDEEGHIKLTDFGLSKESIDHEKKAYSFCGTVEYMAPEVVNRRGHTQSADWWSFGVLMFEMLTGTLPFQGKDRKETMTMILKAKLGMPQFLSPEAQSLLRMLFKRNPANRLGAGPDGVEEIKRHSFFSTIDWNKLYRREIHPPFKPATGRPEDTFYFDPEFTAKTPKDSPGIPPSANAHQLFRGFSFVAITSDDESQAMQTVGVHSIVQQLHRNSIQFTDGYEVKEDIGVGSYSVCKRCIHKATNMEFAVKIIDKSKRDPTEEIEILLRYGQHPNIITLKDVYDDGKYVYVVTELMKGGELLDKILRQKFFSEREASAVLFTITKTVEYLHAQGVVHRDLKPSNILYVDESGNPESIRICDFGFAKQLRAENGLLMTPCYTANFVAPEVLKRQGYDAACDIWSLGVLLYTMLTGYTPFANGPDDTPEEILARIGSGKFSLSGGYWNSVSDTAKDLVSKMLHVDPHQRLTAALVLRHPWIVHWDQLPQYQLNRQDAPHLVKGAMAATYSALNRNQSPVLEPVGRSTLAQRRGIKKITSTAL

Molecule | S6 peptide phosphorylation assay of endogenous RSK2 immunoprecipitated from Cos7 cells transfected with Tat [1] | binding result [2]
Full-length Tat (101 amino acids) bearing a C-terminal FLAG tag (natural protein) | 3 fold | 
B1 |  | binds
